{
  "source": "patent US20240382587A1",
  "about": "(TRUSTEES OF INDIANA UNIVERSITY, published 2024)",
  "molecular_target": "T1, recombinant human B domain deleted (BDD)-FVIII (Xyntha) (human, UniProt P00451 20-2351)",
  "T1 sequence (looked up)": "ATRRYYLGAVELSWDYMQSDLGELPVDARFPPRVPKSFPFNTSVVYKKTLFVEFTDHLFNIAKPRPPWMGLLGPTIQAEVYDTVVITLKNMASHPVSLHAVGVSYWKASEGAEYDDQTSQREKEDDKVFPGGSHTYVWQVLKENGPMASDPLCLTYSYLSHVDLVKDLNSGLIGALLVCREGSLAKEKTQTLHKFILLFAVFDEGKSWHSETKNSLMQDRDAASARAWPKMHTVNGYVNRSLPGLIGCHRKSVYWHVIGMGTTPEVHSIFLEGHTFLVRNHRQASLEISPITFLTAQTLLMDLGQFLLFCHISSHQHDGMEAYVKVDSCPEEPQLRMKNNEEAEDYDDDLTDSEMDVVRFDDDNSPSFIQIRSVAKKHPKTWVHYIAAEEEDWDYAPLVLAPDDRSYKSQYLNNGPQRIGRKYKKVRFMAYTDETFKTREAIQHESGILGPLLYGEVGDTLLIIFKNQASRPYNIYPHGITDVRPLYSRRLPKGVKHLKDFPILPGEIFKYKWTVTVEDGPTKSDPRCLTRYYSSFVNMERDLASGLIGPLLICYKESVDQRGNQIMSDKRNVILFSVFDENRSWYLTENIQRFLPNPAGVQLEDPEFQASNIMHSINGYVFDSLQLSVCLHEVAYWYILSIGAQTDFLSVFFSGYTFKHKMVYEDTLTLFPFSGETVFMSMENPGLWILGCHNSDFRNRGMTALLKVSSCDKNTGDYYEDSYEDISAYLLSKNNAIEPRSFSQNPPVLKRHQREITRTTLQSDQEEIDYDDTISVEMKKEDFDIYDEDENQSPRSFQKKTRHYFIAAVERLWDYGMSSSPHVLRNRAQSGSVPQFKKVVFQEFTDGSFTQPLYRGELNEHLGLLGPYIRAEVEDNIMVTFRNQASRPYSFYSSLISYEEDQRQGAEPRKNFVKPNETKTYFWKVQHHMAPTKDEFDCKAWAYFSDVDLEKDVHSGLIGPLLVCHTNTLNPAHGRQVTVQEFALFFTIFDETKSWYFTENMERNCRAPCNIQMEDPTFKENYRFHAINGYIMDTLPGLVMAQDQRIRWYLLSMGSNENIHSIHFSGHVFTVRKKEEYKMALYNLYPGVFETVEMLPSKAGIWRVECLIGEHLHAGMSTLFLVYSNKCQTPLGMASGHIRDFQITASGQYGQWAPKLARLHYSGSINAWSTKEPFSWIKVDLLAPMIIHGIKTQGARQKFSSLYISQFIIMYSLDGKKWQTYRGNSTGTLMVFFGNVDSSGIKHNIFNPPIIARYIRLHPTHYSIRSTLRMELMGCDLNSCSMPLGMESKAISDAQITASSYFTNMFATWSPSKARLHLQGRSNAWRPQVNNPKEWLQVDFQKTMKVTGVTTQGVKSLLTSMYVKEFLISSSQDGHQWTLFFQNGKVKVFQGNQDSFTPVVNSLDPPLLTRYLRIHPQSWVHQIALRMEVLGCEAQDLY",
  "experiment": "cell-based or functional assay",
  "data": [
    {"binder": "FVIII TRUC (TCR fusion construct: BO2C11 FVIII scFv fused to the N-terminus of murine CD3 epsilon) (scFv) EIALTQSPGTLSLSPGERATLSCRASQSFSSSYLAWYQQKPGQAPRLLIYGASTRATGIPDRFSGSGSGTDFTLTISRLEPEDFAVYYCQKYGTSAITFGQGTRLEIKGGGGGSGGGGSGGGGSQVQLVQSGAEVKKPGASVKVSCKVSGYTLTELPVHWVRQAPGKGLEWVGSFDPESGESIYAREFQGSVTMTADTSTDIAYMELSSLRSDDTAVYYCAVPDPDAFDIWGQGTMVTVSSGGGGSGGGGSGGGGSDAENIEYKVSISGTSVELTCPLDSDENLKWEKNGQELPQKHDKHLVLQDFSEVEDSGYYVCYTPASNKNTYLYLKARVCEYCVEVDLTAVAIIIIVDICITLGLLMVIYYWSKNRKAKAKPVTRGTGAGSRPRGQNKERPPPVPNPDYEPIRKGQRDLYSGLNQRAV", "values": [
      {"measurement": "CTLA4 expression in TRUC Tregs in vitro", "result": 5, "unit": "fold"}
    ]}
  ]
}
